Experimental data: publication PMC5119889
Blank lines part the entries; values can stand above or below the substance they belong to.

How the values were obtained:
[1] = target: α1A-tubulin (α-Tubulin-CT) 399-451 (UniProt Q71U36); assay: GST pull-down, anti-His blot; settings: sites S245
[2] = target: polymerized microtubules from Cos7 lysate; assay: tubulin cosedimentation assay, band densitometry of immunoblots; settings: pre-cleared lysates of Cos7 cells expressing FLAG tagged GIV-WT or SD mutant; n = 3; parent: est. 0.90; read off a plot

binding against the reference ([1]; reference: His-GIV-NT WT, not phosphorylated): gained
Substance: GIV (Girdin) 1-440 (from UniProt Q3V6T2) His-GIV-NT WT phosphorylated by AMPK

binding against the reference ([1]; reference: wild type, AMPK-treated): lost
Substance: GIV (Girdin) 1-440 (from UniProt Q3V6T2) S245A, AMPK-treated

other: Ratio of GIV (Pellet:Supernatant) [2]: 2
Substance: GIV-FLAG WT, full length human GIV (from UniProt Q3V6T2) S245D
